Measurements: publication PMC7729135, “PPARγ S273 Phosphorylation Modifies the Dynamics of Coregulator Proteins Recruitment” (Frontiers in Endocrinology, 2020)
Values belong to the molecule of their own block, whether it stands above or below them.

T1: Gal-PGC1-α (mouse PGC1-α 136-340) (mouse, UniProt O70343 136-340)
T1 construct: mouse PGC1-α, amino acids 136 to 340, in the vector pM (Clontech); holds ID1 LKKLL (residues 142-146); also called PGC1-α wt; Gal4-PGC1-α; source: COS-7 cells, transfected (mammalian two-hybrid fusion)
T1 sequence (looked up): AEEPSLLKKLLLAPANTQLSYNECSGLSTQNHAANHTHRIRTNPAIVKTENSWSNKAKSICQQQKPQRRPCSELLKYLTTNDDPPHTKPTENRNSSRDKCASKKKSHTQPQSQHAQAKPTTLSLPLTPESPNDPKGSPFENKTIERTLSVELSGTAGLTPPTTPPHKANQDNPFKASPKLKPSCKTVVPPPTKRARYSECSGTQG

T2: Gal-NCoR (ID1 + ID2 + ID3, mouse NCoR from 1629 to the C terminus) (mouse, UniProt Q60974 1629-2453)
T2 construct: mouse NCoR from 1629 to the C terminus (ID1 + ID2 + ID3), in the vector pM (Clontech); Plasmid provided by A. Le Maire (CBS, CNRS); also called NCoR wt; source: HEK293T cells, transfected (mammalian two-hybrid fusion)
T2 sequence (looked up): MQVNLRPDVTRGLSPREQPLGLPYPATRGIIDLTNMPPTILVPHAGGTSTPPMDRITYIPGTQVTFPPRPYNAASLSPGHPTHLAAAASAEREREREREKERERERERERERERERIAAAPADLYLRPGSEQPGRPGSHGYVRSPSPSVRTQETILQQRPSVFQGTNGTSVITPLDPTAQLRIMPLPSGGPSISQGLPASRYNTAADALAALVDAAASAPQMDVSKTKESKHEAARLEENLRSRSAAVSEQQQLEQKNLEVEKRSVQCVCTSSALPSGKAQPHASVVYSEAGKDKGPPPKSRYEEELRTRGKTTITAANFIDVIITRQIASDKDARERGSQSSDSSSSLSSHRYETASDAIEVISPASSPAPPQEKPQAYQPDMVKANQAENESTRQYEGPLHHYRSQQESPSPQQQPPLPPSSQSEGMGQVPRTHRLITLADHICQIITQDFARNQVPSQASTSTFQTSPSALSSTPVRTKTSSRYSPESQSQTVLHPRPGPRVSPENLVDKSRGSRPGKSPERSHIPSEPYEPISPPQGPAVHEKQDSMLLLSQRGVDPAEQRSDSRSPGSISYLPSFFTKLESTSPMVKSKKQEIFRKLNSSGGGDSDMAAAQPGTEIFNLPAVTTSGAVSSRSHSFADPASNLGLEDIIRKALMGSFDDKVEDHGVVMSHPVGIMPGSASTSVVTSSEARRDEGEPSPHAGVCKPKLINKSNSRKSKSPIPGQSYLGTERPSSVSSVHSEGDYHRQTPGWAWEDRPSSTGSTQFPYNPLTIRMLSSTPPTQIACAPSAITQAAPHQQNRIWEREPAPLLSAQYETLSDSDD

T3: Gal-TIF2 (three interaction domains, human TIF2 624-869) (human, UniProt Q15596 624-869)
T3 construct: also called TIF2 wt; source: COS-7 cells, transfected (mammalian two-hybrid fusion)
T3 sequence (looked up): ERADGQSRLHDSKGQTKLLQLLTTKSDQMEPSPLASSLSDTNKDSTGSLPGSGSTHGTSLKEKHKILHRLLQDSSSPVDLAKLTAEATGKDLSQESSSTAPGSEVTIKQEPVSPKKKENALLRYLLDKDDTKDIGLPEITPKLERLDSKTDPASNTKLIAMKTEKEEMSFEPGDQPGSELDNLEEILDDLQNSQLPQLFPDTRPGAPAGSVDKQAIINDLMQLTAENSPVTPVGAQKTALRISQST

B1: VP16-PPARγ (LBD region of PPARγ fused to the VP16 transactivation domain) (domain or fragment, UniProt P37231 238-503, looked up)
chain: DLRALAKHLYDSYIKSFPLTKAKARAILTGKTTDKSPFVIYDMNSLMMGEDKIKFKHITPLQEQSKEVAIRIFQGCQFRSVEAVQEITEYAKSIPGFVNLDLNDQVTLLKYGVHEIIYTMLASLMNKDGVLISEGQGFMTREFLKSLRKPFGDFMEPKFEFAVKFNALELDDSDLAIFIAVIILSGDRPGLLNVKPIEDIQDNLLQALELQLKLNHPESSQLFAKLLQKMTDLRQIVTEHVQLLQVIKKTETDMSLHPLLQEIYKD
notes: plasmid provided by A. Le Maire (CBS, CNRS); also called PPARγ wt; source: COS-7 or HEK293T cells, transfected (mammalian two-hybrid fusion)
B2: PPARγ LBD (aa207-aa477), purified (domain or fragment, UniProt P37231-2 207-477, looked up)
chain: ESADLRALAKHLYDSYIKSFPLTKAKARAILTGKTTDKSPFVIYDMNSLMMGEDKIKFKHITPLQEQSKEVAIRIFQGCQFRSVEAVQEITEYAKSIPGFVNLDLNDQVTLLKYGVHEIIYTMLASLMNKDGVLISEGQGFMTREFLKSLRKPFGDFMEPKFEFAVKFNALELDDSDLAIFIAVIILSGDRPGLLNVKPIEDIQDNLLQALELQLKLNHPESSQLFAKLLQKMTDLRQIVTEHVQLLQVIKKTETDMSLHPLLQEIYKDLY
notes: also called PPARγ wt; PPARγ wild-type
B3: His tagged PGC1-α (aa138-aa341) (domain or fragment, UniProt O70343 138-341, looked up)
chain: EPSLLKKLLLAPANTQLSYNECSGLSTQNHAANHTHRIRTNPAIVKTENSWSNKAKSICQQQKPQRRPCSELLKYLTTNDDPPHTKPTENRNSSRDKCASKKKSHTQPQSQHAQAKPTTLSLPLTPESPNDPKGSPFENKTIERTLSVELSGTAGLTPPTTPPHKANQDNPFKASPKLKPSCKTVVPPPTKRARYSECSGTQGS
modifications: FITC (fluorescein isothiocyanate) label in the fluorescence anisotropy assay; unlabelled in the pull-down
notes: PGC1-α aa138-aa341; source: E. coli BL21 (DE3)
B4: GST-tagged TIF2 (aa563-aa757) (domain or fragment, UniProt Q15596 563-757, looked up)
chain: QNSPVNMNPPPLSKMGSLDSKDCFGLYGEPSEGTTGQAESSCHPGEQKETNDPNLPPAVSSERADGQSRLHDSKGQTKLLQLLTTKSDQMEPSPLASSLSDTNKDSTGSLPGSGSTHGTSLKEKHKILHRLLQDSSSPVDLAKLTAEATGKDLSQESSSTAPGSEVTIKQEPVSPKKKENALLRYLLDKDDTKDI
modifications: FITC (fluorescein isothiocyanate) label in the fluorescence anisotropy assay; unlabelled in the pull-down
notes: TIF2 aa563-aa757; source: E. coli BL21 (DE3)

What was measured:
[1] = target: VP16-PPARγ (LBD region of PPARγ fused to the VP16 transactivation domain) (UniProt P37231); experiment: mammalian two-hybrid assay; details: for response: read off a plot; for other: Fold activation / other: Dissociation ratio: Rosiglitazone against no treatment
[2] = target: Gal-SMRT (ID1 + ID2, human SMRT from 982 to the C terminus) (human); experiment: two-hybrid; mammalian two-hybrid in Hek293T cells (corepressors): Gal4 DBD-corepressor + VP16-PPARγ LBD + pGRE-LUC + Renilla control; with or without 1 μM Rosiglitazone for 24 h; interaction rate = luminescence divided by that of the corepressor without PPARγ
[3] = target: T1, Gal-PGC1-α (mouse PGC1-α 136-340); experiment: two-hybrid; as a1 (COS-7 cells, coactivators) with co-transfected pCDNA-CDK5 (CDK5 and P35); details: partners not purified
[4] = target: T2, Gal-NCoR (ID1 + ID2 + ID3, mouse NCoR …); experiment: two-hybrid; as a2 (Hek293T cells, corepressors) with co-transfected pCDNA-CDK5 (CDK5 and P35); details: partners not purified
[5] = target: T1, Gal-PGC1-α (mouse PGC1-α 136-340); experiment: two-hybrid; mammalian two-hybrid in COS-7 cells (coactivators): Gal4 DBD-coactivator + VP16-PPARγ LBD + pGRE-LUC + Renilla control; with or without 1 μM Rosiglitazone for 24 h; interaction rate = luminescence divided by that of the empty Gal4 vector; details: partners not purified
[6] = target: T4, Gal-TRAP220 (ID1 + ID2, human TRAP220 404-654) (human, UniProt Q15648 404-654); experiment: as above; details: partners not purified
T4 construct: human TRAP220, amino acids 404 to 654 (ID1 + ID2), in the vector pM (Clontech); source: COS-7 cells, transfected (mammalian two-hybrid fusion)

[7] = target: T3, Gal-TIF2 (three interaction domains, …); experiment: as above; details: partners not purified
Gal-SMRT ID2m (human) = experiment: two-hybrid; mammalian two-hybrid in Hek293T cells (corepressors): Gal4 DBD-corepressor + VP16-PPARγ LBD + pGRE-LUC + Renilla control; with or without 1 μM Rosiglitazone for 24 h; interaction rate = luminescence divided by that of the corepressor without PPARγ
[8] = target: T2, Gal-NCoR (ID1 + ID2 + ID3, mouse NCoR …); experiment: as above; details: partners not purified
[9] = target: T5, GST-tagged SMRT (aa2041-aa2359) (UniProt Q9Y618 2041-2359, FITC (fluorescein isothiocyanate) label in the fluorescence anisotropy assay; unlabelled in the pull-down); experiment: fluorescence polarisation; fluorescence anisotropy: PPARγ wt, S273A or S273D (200 μM to 6 nM) titrated into FITC-labelled affinity purified corepressor, in the elution buffer of the corepressor; Kd from a Hill model; details: both partners purified
T5 construct: SMRT aa2041-aa2359; source: modified E. coli BL21(DE3) strain

[10] = target: B2; experiment: fluorescence polarisation; fluorescence anisotropy: PPARγ wt, S273A or S273D (200 μM to 6 nM) titrated into FITC-labelled affinity purified coactivator, in the elution buffer of the coactivator, with Rosiglitazone (3× molar excess); Kd from a Hill model; details: both partners purified
[11] = target: B2; experiment: pull-down; coactivators: extract of His tagged PGC1-α on TALON resin or of GST-tagged TIF2 on Glutathione Sepharose, washed; then purified tag-free PPARγ or S273A, pre-incubated 20 min with rosiglitazone, 2 h at 4°C; eluate blotted with anti-PPARγ; details: both partners purified

T5 sequence (Q9Y618 2041-2359): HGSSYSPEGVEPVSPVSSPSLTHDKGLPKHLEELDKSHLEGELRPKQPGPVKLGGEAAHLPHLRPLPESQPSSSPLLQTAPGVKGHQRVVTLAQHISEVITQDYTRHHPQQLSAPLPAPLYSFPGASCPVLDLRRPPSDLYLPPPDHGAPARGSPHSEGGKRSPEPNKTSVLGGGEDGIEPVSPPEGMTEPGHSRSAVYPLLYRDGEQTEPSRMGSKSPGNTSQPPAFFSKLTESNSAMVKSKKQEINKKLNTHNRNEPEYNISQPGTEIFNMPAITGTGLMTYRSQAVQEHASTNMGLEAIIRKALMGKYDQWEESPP
Gal-SMRT (ID1 + ID2, human SMRT from 982 to the C terminus) (human), sequence (Q9Y618 whole entry, the tested form may be a part): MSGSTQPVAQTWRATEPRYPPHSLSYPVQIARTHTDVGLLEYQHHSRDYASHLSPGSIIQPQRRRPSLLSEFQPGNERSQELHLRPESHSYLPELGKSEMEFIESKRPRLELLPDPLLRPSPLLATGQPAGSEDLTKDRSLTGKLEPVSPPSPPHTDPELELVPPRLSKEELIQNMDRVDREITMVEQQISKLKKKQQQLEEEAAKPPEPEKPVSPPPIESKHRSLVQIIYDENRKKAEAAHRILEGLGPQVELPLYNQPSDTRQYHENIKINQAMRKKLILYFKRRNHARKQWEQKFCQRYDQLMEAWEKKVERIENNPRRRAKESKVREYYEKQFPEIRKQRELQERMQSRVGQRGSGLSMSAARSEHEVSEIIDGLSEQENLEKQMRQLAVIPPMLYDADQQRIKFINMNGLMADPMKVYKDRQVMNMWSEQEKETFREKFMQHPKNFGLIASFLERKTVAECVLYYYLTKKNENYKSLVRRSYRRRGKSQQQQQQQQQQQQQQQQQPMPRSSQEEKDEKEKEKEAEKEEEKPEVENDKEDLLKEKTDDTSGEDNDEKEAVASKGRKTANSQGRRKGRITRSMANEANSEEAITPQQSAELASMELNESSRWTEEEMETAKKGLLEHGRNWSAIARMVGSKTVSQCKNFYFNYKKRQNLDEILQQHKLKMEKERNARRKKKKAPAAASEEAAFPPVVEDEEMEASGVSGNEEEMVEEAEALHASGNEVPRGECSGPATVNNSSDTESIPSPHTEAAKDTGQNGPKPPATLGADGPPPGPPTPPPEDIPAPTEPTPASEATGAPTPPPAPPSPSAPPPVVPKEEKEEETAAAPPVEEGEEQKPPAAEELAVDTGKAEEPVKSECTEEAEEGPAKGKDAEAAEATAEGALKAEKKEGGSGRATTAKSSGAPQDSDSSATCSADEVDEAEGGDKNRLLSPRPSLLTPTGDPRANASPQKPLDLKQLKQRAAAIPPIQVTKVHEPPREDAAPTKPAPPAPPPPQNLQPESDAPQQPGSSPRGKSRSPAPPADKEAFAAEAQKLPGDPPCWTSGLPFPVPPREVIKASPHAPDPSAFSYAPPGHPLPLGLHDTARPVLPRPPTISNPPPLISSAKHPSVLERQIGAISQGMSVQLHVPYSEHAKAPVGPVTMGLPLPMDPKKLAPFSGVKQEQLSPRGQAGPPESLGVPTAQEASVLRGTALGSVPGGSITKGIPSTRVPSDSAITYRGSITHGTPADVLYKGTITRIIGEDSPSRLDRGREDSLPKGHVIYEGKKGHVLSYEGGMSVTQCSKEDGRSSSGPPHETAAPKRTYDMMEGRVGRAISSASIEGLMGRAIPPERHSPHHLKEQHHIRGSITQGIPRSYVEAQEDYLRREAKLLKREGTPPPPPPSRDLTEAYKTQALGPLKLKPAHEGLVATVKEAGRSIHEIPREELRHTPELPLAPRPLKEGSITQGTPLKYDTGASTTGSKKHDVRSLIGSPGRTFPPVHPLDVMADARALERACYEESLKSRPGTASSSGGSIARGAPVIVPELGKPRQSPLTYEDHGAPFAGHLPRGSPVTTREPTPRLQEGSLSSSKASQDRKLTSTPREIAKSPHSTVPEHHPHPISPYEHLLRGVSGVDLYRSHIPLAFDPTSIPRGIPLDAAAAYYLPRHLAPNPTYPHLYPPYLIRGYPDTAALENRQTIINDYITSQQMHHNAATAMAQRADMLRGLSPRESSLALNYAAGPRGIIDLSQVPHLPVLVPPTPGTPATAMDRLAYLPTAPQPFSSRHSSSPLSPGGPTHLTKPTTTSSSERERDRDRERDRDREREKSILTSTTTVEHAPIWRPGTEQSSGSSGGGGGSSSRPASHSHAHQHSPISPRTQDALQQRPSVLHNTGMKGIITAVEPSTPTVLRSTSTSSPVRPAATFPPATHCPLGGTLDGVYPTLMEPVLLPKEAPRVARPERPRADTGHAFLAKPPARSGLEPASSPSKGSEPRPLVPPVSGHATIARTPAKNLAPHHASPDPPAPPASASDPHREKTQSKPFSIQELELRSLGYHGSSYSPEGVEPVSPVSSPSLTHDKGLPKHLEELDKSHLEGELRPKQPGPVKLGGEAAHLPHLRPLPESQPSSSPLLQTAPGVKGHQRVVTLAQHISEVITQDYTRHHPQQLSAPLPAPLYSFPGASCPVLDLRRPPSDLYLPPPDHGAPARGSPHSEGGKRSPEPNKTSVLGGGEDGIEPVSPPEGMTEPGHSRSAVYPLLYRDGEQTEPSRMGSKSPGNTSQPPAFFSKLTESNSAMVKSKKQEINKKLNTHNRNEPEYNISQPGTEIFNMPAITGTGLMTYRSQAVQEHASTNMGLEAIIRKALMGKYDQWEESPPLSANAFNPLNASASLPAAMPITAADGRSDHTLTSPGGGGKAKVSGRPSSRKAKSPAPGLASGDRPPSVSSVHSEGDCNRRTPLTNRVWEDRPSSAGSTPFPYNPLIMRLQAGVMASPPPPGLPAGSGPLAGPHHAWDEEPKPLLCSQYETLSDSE
T4 sequence (Q15648 404-654): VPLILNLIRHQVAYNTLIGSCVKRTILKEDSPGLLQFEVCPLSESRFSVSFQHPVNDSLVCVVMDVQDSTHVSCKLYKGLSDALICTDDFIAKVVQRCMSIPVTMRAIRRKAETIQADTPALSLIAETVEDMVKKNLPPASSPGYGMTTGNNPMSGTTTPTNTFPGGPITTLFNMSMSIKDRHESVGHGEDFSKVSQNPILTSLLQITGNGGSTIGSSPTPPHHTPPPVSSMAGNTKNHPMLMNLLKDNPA

response ([1]; No treatment, parent: est. 0.95): 0.45
other: Fold activation [1]: 0.5
response ([1]; Rosiglitazone, parent: est. 1.3): 0.75
Molecule: Gal-TIF2 (three interaction domains, human TIF2 624-869) (from UniProt Q15596) ID3 LRYLL changed to LRYAA

response ([1]; No treatment, parent: est. 3.6): 2.2
other: Dissociation ratio [1]: 39%
response ([1]; Rosiglitazone, parent: est. 1.2): 1.3
Molecule: Gal-NCoR (ID1 + ID2 + ID3, mouse NCoR from 1629 to the C terminus) (from UniProt Q60974) ID3 IDVII changed to IDVAA

response ([1]; No treatment, parent: est. 2.3): 2.4
other: Dissociation ratio [1]: 58%
Molecule: Gal-SMRT (ID1 + ID2, human SMRT from 982 to the C terminus) V2097A; I2098A

dissociation rate in the presence of the ligand (Rosiglitazone) [2]: 65%
Molecule: VP16-PPARγ (LBD region of PPARγ fused to the VP16 transactivation domain) (from UniProt P37231 238-503) (domain or fragment)

response ([1]; No treatment, parent: est. 1.0): 1.3
other: Fold activation [1]: 0.3
response ([1]; Rosiglitazone, parent: est. 1.4): 1.7
Molecule: Gal-TIF2 (three interaction domains, human TIF2 624-869) (from UniProt Q15596) ID2 LHRLL changed to LHRAA

Molecule: B1
interaction rate in the two-hybrid assay (fold), with CDK5 [3]: 2 fold
interaction rate in the two-hybrid assay (fold), with CDK5 [4]: 2 fold
interaction rate in the two-hybrid assay (fold) [5]: 7 fold
interaction rate in the two-hybrid assay (fold), in absence of CDK5 [5]: 5 fold
interaction rate in the two-hybrid assay (fold) [6]: 4 fold
interaction rate in the two-hybrid assay (fold), in absence of CDK5 [7]: 1.5 fold
fold reduction of the interaction against SMRT wt (Gal-SMRT ID2m (human)): 6 fold
interaction rate in the two-hybrid assay (fold), in absence of CDK5 [8]: 4 fold

Molecule: B2
Kd [9]: 4.06 ± 1.01 µM

Molecule: B3
Kd [10]: 55.8 ± 2.9 µM

Molecule: B4
binding result [11]: binds
